Laboratory results as given in patent US20200247897A1 (Genmab, published 2020).
Blank lines part the entries; values can stand above or below the binder they belong to.

Key:
murine DR5 = target: T1, murine DR5 (mouse (Mus musculus), UniProt Q9QZM4 53-381); assay: flow cytometry on transfected CHO cells
T1 construct: also called mouse DR5

[1] = target: T2, cynomolgus monkey DR5 protein with deletion of amino acids 185-213 and death domain loss-of-function mutation … (cynomolgus monkey (Macaca fascicularis)); assay: flow cytometry on cynomolgus DR5-transfected CHO cells; four experiments
T2 construct: also called Cyno DR5Mfdel-K420N
T2 chain: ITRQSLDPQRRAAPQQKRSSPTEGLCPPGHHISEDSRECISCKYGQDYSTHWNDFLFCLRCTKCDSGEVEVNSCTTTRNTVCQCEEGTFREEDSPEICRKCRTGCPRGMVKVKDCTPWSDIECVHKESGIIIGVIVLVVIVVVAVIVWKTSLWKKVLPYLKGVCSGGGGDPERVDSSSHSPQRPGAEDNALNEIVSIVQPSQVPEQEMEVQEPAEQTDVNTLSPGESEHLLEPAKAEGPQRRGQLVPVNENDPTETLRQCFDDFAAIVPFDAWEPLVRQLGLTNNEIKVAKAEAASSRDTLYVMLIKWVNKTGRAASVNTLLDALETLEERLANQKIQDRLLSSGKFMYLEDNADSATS

[2] = target: T3, human DR5 (death receptor 5) on DR5-positive human colon cancer cells (human, UniProt O14763 56-440); assay: flow cytometry on HCT 116 cells
T3 construct: Endogenous receptor of the cell lines; also called CD262; TRAILR2

T1 sequence (Q9QZM4 53-381 limits assumed): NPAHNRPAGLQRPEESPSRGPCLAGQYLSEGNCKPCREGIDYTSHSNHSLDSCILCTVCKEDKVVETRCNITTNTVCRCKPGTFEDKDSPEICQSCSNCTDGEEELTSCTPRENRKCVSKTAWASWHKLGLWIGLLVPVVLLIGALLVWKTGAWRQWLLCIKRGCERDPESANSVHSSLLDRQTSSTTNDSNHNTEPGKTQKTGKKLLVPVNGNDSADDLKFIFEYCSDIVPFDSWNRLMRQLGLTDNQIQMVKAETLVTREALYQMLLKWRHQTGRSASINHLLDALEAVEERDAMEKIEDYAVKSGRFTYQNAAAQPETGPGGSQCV

binding result (murine DR5): no binding (tested: 10 µg/mL)
B1: IgG1-hDR5-05-F405L (antibody, name in EU numbering)
heavy: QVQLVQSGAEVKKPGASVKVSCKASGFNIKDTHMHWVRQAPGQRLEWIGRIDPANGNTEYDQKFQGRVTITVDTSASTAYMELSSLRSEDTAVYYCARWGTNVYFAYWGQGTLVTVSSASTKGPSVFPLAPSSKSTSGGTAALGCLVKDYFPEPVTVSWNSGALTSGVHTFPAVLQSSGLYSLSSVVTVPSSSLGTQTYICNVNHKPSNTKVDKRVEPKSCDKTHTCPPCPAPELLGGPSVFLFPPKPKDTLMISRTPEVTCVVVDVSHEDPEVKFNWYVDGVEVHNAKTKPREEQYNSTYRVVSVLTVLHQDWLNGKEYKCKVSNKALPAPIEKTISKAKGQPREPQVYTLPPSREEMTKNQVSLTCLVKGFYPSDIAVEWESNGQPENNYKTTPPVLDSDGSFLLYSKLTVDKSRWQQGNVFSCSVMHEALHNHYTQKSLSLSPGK
light: DIQLTQSPSSLSASVGDRVTITCSASSSVSYMYWYQQKPGKAPKPWIYRTSNLASGVPSRFSGSGSGTDFTLTISSLQPEDFATYYCQQYHSYPPTFGGGTKVEIKRTVAAPSVFIFPPSDEQLKSGTASVVCLLNNFYPREAKVQWKVDNALQSGNSQESVTEQDSKDSTYSLSSTLTLSKADYEKHKVYACEVTHQGLSSPVTKSFNRGEC
notes: Expressed as IgG1,kappa; also called humanized DR5-05

B2: IgG1-hDR5-05-E430G (antibody)
heavy: not shown
light: DIQLTQSPSSLSASVGDRVTITCSASSSVSYMYWYQQKPGKAPKPWIYRTSNLASGVPSRFSGSGSGTDFTLTISSLQPEDFATYYCQQYHSYPPTFGGGTKVEIKRTVAAPSVFIFPPSDEQLKSGTASVVCLLNNFYPREAKVQWKVDNALQSGNSQESVTEQDSKDSTYSLSSTLTLSKADYEKHKVYACEVTHQGLSSPVTKSFNRGEC
EC50 [1]: 0.17 µg/mL

B3: IgG1-hDR5-05-N55D-F405L (antibody, V domains shown)
VH: QVQLVQSGAEVKKPGASVKVSCKASGFNIKDTHMHWVRQAPGQRLEWIGRIDPADGNTEYDQKFQGRVTITVDTSASTAYMELSSLRSEDTAVYYCARWGTNVYFAYWGQGTLVTVSS
VL: DIQLTQSPSSLSASVGDRVTITCSASSSVSYMYWYQQKPGKAPKPWIYRTSNLASGVPSRFSGSGSGTDFTLTISSLQPEDFATYYCQQYHSYPPTFGGGTKVEIKR
binding result [2]: binds
